{
  "source": "paper PMC7308389",
  "molecular_target": "muscarinic acetylcholine receptor type 1 (M1R) (human) (UniProt P11229)",
  "sequence (P11229 whole entry, the tested form may be a part)": "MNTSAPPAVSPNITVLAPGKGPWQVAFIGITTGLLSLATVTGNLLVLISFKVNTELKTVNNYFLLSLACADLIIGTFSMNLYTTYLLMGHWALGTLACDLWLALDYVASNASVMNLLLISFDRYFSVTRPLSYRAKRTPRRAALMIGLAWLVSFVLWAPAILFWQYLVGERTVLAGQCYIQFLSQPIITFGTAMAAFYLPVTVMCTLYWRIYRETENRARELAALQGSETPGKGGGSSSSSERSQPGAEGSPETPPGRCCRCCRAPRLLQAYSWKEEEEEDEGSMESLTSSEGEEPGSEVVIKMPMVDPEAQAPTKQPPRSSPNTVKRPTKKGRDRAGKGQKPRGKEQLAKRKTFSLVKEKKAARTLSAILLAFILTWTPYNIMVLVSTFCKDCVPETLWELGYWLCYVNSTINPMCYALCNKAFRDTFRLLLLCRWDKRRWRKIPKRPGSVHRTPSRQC",
  "data": [
    {"substance": "Gi3_Δ5 (Gαi3 with the last five residues truncated, with added Gβγ) (from UniProt P08754 1-349; P62873 1-340; P59768 1-71) (complex)", "values": [
      {"measurement": "M1R-induced [3H]GDP release from Gi3 Δ5 (Fig. 3c) (% GDP release)", "value": 20}
    ]}
  ]
}
